Source: patent US20250381281A1, “METHODS OF MANUFACTURING PEPTIDE-BASED VACCINES” (priority 2018, published 2025)
Non-standard residues stand in square brackets, D forms with d. Primed or numbered codes have the meaning given here. No end group written: not given here. Lys(N3)′ = its azide, alkyne or alkene has reacted where a group follows in round brackets; DBCO′ = not defined here; F′ = aminophenylalanine; Ahx = NCCCCCC(=O)O

What was measured:
[1] = Particle size and stability of amphiphilic carrier molecules by dynamic light scattering; format: physicochemical; conditions: PBS pH 7.4, 0.5 mg/mL, peptide-based linear carriers
Procedure: This reaction scheme was used to prepare different compositions of amphiphilic carrier molecules that were characterized for the capacity to form stable nanoparticle micelles in aqueous buffer, PBS pH 7.4, at a concentration of 0.5 mg/mL of amphiphilic carrier molecule. The results of these studies are summarized below according to the chemical composition and architecture of the amphiphilic carrier molecule.
A series of linear amphiphilic carriers of formula C-B-L-H, wherein the charged moiety (C) and spacer (B) comprises peptides, i.e., poly(lysine) and poly(serine-co-glycine), respectively, with varying hydrophobic block composition were evaluated for particle size and stability by dynamic light scattering. […]

CD8 T cell responses [2] = experiment: CD8 T cell response of mice vaccinated with Cpne1 peptide antigen conjugates, intracellular cytokine staining for IFN-g; format: in vivo, C57BL/6 mice; conditions: SC route; vaccinated day 0, 14, 28; whole blood
Procedure: Mice were vaccinated on day 0, 14, and 28. CD8 T cell responses were measured on day 7, 21, 35, and 42 from whole blood using an intracellular cytokine staining assay for IFN-g production; and
To evaluate the suitability of immunogenic compositions based on peptide antigen fragments comprising aryl amines, mice were either vaccinated with peptide antigen conjugates of formula C-B1-A-B2-L-H, either comprising a charged moiety with positive charge, […] Tyr-Ser-Pro-Val-Cit-Lys(N3-DBCO)-Glu(2B)-Trp-Glu(2B)-Trp-Glu(2B)—NH2 (SEQ ID NO: 76) or a charged moiety with negative charge and a B2 comprised of amino acids bearing aryl amines, i.e., Ac-Glu-Glu-Glu-Glu-Glu-Val-Cit-[…]Try-[…]Cit-Phe(NH2)-Phe(NH2)-Phe(NH2)-Phe(NH2)-Lys(N3-DBCO)-Glu(2B)-Trp-Glu(2B)-Trp-Glu(2B)—NH2 (SEQ ID NO: 42), wherein Phe(NH2) is para-amino-phenylalanine.

CD8 T cell responses [3] = experiment: CD8 T cell response of mice vaccinated with Adpgk peptide antigen conjugates, intracellular cytokine staining for IFN-g; format: in vivo, C57BL/6 mice; conditions: SC route; vaccinated day 0, 14, 28; whole blood
Procedure: Mice were vaccinated on day 0, 14, and 28. CD8 T cell responses were measured on day 12, 21, and 35 from whole blood using an intracellular cytokine staining assay for IFN-g production;

Row | Substance | Size (diameter, nm) [1] [nm] | also measured
1 | KKK-SGSGSGSGSGSGSGSGSGSGSGSG-(Lys(N3-DBCO))-Bis(Ahx-F′10)2: peptide-based linear amphiphilic carrier molecule C-B-L-H (chain 1 KKKSGSGSGSGSGSGSGSGSGSGSGSG[Lys(N3)′](DBCO′)[Ahx]; chain 2 [F′][F′][F′][F′][F′][F′][F′][F′][F′][F′]; also: two Ahx-F′10 arms, branching not given here, one arm shown) | 2683 | –
2 | KKK-SGSGSGSGSGSGSGSGSGSGSGSG-(Lys(N3-DBCO))-Ahx-(F′)10: peptide-based linear amphiphilic carrier molecule C-B-L-H (chain 1 KKKSGSGSGSGSGSGSGSGSGSGSGSG[Lys(N3)′](DBCO′)[Ahx]; chain 2 [F′][F′][F′][F′][F′][F′][F′][F′][F′][F′]; also: chain 2 (F′)10 follows Ahx of chain 1) | 3839 | –
3 | Ac-Glu-Glu-Glu-Glu-Glu-Val-Cit-Asp-Phe-Thr-Gly-Ser-Asn-Gly-Asp-Pro-Ser-Ser-Pro-Try-Ser-Leu-His-Tyr-Leu-Ser-Pro-Thr-Gly-Val-Asn-Glu-Tyr-Ser-Pro-Val-Cit-Phe(NH2)-Phe(NH2)-Phe(NH2)-Phe(NH2)-Lys(N3-DBCO)-Glu(2B)-Trp-Glu(2B)-Trp-Glu(2B)—NH2 (EEEEEVXDFTGSNGDPSSPYSLHYLSPTGVNEYSPVXXXXXX; acetyl, citrulline, DBCO click conjugate, amidated; SITE 1 Wherein Glu is modified with an acetyl group at the N-terminus; SITE 7 citrulline (Cit); SITE 37 citrulline (Cit); SITE 38..41 para-amino-phenylalanine.; SITE 42 azido-lysine (Lys(N3))) [SEQ ID NO: 42, negatively charged Cpne1 peptide antigen conjugate] | – | CD8 T cell responses detected in vaccinated animals (CD8 T cell responses [2]): detected in all vaccinated animals; CD8 T cell responses, tris salts of the negatively charged conjugate (CD8 T cell responses [2]): CD8 T cell responses were induced in all animals
4 | KKK-SGSGSGSGSGSGSGSGSGSGSGSG-(Lys(N3-DBCO))-Ahx-(F′)5: peptide-based linear amphiphilic carrier molecule C-B-L-H (chain 1 KKKSGSGSGSGSGSGSGSGSGSGSGSG[Lys(N3)′](DBCO′)[Ahx]; chain 2 [F′][F′][F′][F′][F′]; also: chain 2 (F′)5 follows Ahx of chain 1) | 1013 | –
5 | Ac-Glu-Glu-Glu-Glu-Glu-Glu-Glu-Val-Cit-Gly-Ile-Pro-Val-His-Leu-Glu-Leu-Ala-Ser-Met-Thr-Asn-Met-Glu-Leu-Met-Ser-Ser-Ile-Val- His-Gln-Gln-Val-Phe-Pro-Thr-Ser-Pro-Val-Cit-Phe(NH2)-Phe(NH2)-Phe(NH2)-Phe(NH2)-Lys(N3-DBCO)-Glu(2B)-Trp-Glu(2B)-Trp-Glu(2B)—NH2 (EEEEEEEVXGIPVHLELASMTNMELMSSIVHQQVFPTSPVXXXXXX; N-acetyl, citrulline, Phe(NH2), DBCO click, Glu(2B), amide; SITE 1 Wherein Glu is modified with an acetyl group at the N-terminus; SITE 9 citrulline (Cit); SITE 41 citrulline (Cit); SITE 42..45 para-amino-phenylalanine; SITE 46 azido-lysine (Lys(N3))) [SEQ ID NO: 40] | – | CD8 T cell responses (CD8 T cell responses [3]): CD8 T cell responses were induced in all animals
6 | KKKKKKK-SGSGSGSGSGSGSGSGSGSGSGSG-(Lys(N3-DBCO))-Ahx-(F′)5: peptide-based linear amphiphilic carrier molecule C-B-L-H | 477 | –
7 | Lys-Lys-Lys-Lys-Lys-Lys-Lys-Lys-Lys-Val-Arg-Asp-Phe-Thr-Gly-Ser-Asn-Gly-Asp-Pro-Ser-Ser-Pro-Tyr-Ser-Leu-His-Tyr-Leu-Ser-Pro-Thr-Gly-Val-Asn-Glu- Tyr-Ser-Pro-Val-Cit-Lys(N3-DBCO)-Glu(2B)-Trp-Glu(2B)-Trp-Glu(2B)—NH2 (KKKKKKKKKVRDFTGSNGDPSSPYSLHYLSPTGVNEYSPVXX; citrulline, DBCO click conjugate, amidated; SITE 41 citrulline (Cit); SITE 42 azido-lysine (Lys(N3))) [SEQ ID NO: 76, positively charged Cpne1 peptide antigen conjugate] | – | CD8 T cell responses detected in vaccinated animals (CD8 T cell responses [2]): detected in all vaccinated animals
8 | KKK-SGSGSGSGSGSGSGSGSGSGSGSG-(Lys(N3-DBCO))-Ahx-(F′)20: peptide-based linear amphiphilic carrier molecule C-B-L-H (chain 1 KKKSGSGSGSGSGSGSGSGSGSGSGSG[Lys(N3)′](DBCO′)[Ahx]; chain 2 [F′][F′][F′][F′][F′][F′][F′][F′][F′][F′][F′][F′][F′][F′][F′][F′][F′][F′][F′][F′]; also: chain 2 (F′)20 follows Ahx of chain 1) | 1521 | –
9 | KKKKKKK-SGSGSGSGSGSGSGSGSGSGSGSG-(Lys(N3-DBCO))-Ahx-(F′)20: peptide-based linear amphiphilic carrier molecule C-B-L-H | 32 | –
